In patent publication US20180118786A1 (published 2018):
Starred links: 1 amine or outer side, 2 acyl side, 3 side chain; linkers in the order of their positions; H or OH if unused. Positions of bridges follow the written chain, without caps; N, C: chain ends. Non-standard residues stand in square brackets, D forms with d. No end group written: not given here. TATA = O=C(CC[*:1])N1CN(C(=O)CC[*:2])CN(C(=O)CC[*:3])C1; Phe(4-guanidino) = N=C(N)Nc1ccc(C[C@H](N)C(=O)O)cc1; Bta = N[C@@H](Cc1csc2ccccc12)C(=O)O; hArg = N=C(N)NCCCC[C@H](N)C(=O)O; Agb = N=C(N)NCC[C@H](N)C(=O)O; hLys = NCCCCC[C@H](N)C(=O)O; βAla = NCCC(=O)O

T1: human β-FXIIa (HFXIIAB; Molecular Innovations) (human, UniProt P00748 354-362; P00748 373-615)
T1 chain 1: NGPLSCGQR
T1 chain 2: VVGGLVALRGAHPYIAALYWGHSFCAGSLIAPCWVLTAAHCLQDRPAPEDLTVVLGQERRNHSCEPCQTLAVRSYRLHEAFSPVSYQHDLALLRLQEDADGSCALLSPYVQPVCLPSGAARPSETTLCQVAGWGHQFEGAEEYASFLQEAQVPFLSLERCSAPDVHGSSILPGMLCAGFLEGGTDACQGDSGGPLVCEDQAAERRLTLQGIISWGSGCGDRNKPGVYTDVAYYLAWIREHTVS

B1: peptide 41 (peptide 2, Arg4 to 4-guanidinophenylalanine) (peptide)
peptide: H-RCF[Phe(4-guanidino)]LPCRQLRCRW-NH2
modifications: linker 2-7-12 via TATA
SMILES: CC(C)C[C@@H]1NC(=O)[C@H](CCC(N)=O)NC(=O)[C@H](CCCNC(=N)N)NC(=O)[C@@H]2CSCCC(=O)N3CN(CN(C3)C(=O)CCSC[C@H](NC(=O)[C@@H](N)CCCNC(=N)N)C(=O)N[C@@H](Cc3ccccc3)C(=O)N[C@@H](Cc3ccc(NC(=N)N)cc3)C(=O)N[C@@H](CC(C)C)C(=O)N3CCC[C@H]3C(=O)N2)C(=O)CCSC[C@@H](C(=O)N[C@@H](CCCNC(=N)N)C(=O)N[C@@H](Cc2c[nH]c3ccccc23)C(N)=O)NC(=O)[C@H](CCCNC(=N)N)NC1=O
B2: peptide 15 (peptide 2, Pro6 to alanine) (peptide)
peptide: RCFRLACRQLRCRW-NH2
modifications: linker 2-7-12 via TATA; N-terminus assumed
SMILES: CC(C)C[C@@H]1NC(=O)[C@H](CCCNC(=N)N)NC(=O)[C@H](Cc2ccccc2)NC(=O)[C@@H](NC(=O)[C@@H](N)CCCNC(=N)N)CSCCC(=O)N2CN3CN(C2)C(=O)CCSC[C@@H](C(=O)N[C@@H](CCCNC(=N)N)C(=O)N[C@@H](Cc2c[nH]c4ccccc24)C(N)=O)NC(=O)[C@H](CCCNC(=N)N)NC(=O)[C@H](CC(C)C)NC(=O)[C@H](CCC(N)=O)NC(=O)[C@H](CCCNC(=N)N)NC(=O)[C@H](CSCCC3=O)NC(=O)[C@H](C)NC1=O
B3: FXII618 variant with P in position six replaced by S (peptide)
peptide: RCFRLSCRQLRCRW-NH2
modifications: linker 2-7-12 via TATA; N-terminus assumed
SMILES: CC(C)C[C@@H]1NC(=O)[C@H](CCC(N)=O)NC(=O)[C@H](CCCNC(=N)N)NC(=O)[C@@H]2CSCCC(=O)N3CN(CN(C3)C(=O)CCSC[C@H](NC(=O)[C@@H](N)CCCNC(=N)N)C(=O)N[C@@H](Cc3ccccc3)C(=O)N[C@@H](CCCNC(=N)N)C(=O)N[C@@H](CC(C)C)C(=O)N[C@@H](CO)C(=O)N2)C(=O)CCSC[C@@H](C(=O)N[C@@H](CCCNC(=N)N)C(=O)N[C@@H](Cc2c[nH]c3ccccc23)C(N)=O)NC(=O)[C@H](CCCNC(=N)N)NC1=O
B4: peptide 21 (peptide 2, Gln9 to aspartate) (peptide)
peptide: RCFRLPCRDLRCRW-NH2
modifications: linker 2-7-12 via TATA; N-terminus assumed
SMILES: CC(C)C[C@@H]1NC(=O)[C@H](CC(=O)O)NC(=O)[C@H](CCCNC(=N)N)NC(=O)[C@@H]2CSCCC(=O)N3CN(CN(C3)C(=O)CCSC[C@H](NC(=O)[C@@H](N)CCCNC(=N)N)C(=O)N[C@@H](Cc3ccccc3)C(=O)N[C@@H](CCCNC(=N)N)C(=O)N[C@@H](CC(C)C)C(=O)N3CCC[C@H]3C(=O)N2)C(=O)CCSC[C@@H](C(=O)N[C@@H](CCCNC(=N)N)C(=O)N[C@@H](Cc2c[nH]c3ccccc23)C(N)=O)NC(=O)[C@H](CCCNC(=N)N)NC1=O
B5: peptide 83 (FXII618, Arg8 to glycine) (peptide)
peptide: RCFRLPCGQLRCR-NH2
modifications: linker 2-7-12 via TATA; N-terminus assumed
SMILES: CC(C)C[C@@H]1NC(=O)[C@H](CCC(N)=O)NC(=O)CNC(=O)[C@@H]2CSCCC(=O)N3CN(CN(C3)C(=O)CCSC[C@H](NC(=O)[C@@H](N)CCCNC(=N)N)C(=O)N[C@@H](Cc3ccccc3)C(=O)N[C@@H](CCCNC(=N)N)C(=O)N[C@@H](CC(C)C)C(=O)N3CCC[C@H]3C(=O)N2)C(=O)CCSC[C@@H](C(=O)N[C@@H](CCCNC(=N)N)C(N)=O)NC(=O)[C@H](CCCNC(=N)N)NC1=O
B6: peptide 5 (peptide 2, Phe3 to leucine) (peptide)
peptide: RCLRLPCRQLRCRW-NH2
modifications: linker 2-7-12 via TATA; N-terminus assumed
SMILES: CC(C)C[C@@H]1NC(=O)[C@H](CCC(N)=O)NC(=O)[C@H](CCCNC(=N)N)NC(=O)[C@@H]2CSCCC(=O)N3CN(CN(C3)C(=O)CCSC[C@H](NC(=O)[C@@H](N)CCCNC(=N)N)C(=O)N[C@@H](CC(C)C)C(=O)N[C@@H](CCCNC(=N)N)C(=O)N[C@@H](CC(C)C)C(=O)N3CCC[C@H]3C(=O)N2)C(=O)CCSC[C@@H](C(=O)N[C@@H](CCCNC(=N)N)C(=O)N[C@@H](Cc2c[nH]c3ccccc23)C(N)=O)NC(=O)[C@H](CCCNC(=N)N)NC1=O
B7: peptide 6 (peptide 2, Phe3 to alanine) (peptide)
peptide: RCARLPCRQLRCRW-NH2
modifications: linker 2-7-12 via TATA; N-terminus assumed
SMILES: CC(C)C[C@@H]1NC(=O)[C@H](CCC(N)=O)NC(=O)[C@H](CCCNC(=N)N)NC(=O)[C@@H]2CSCCC(=O)N3CN(CN(C3)C(=O)CCSC[C@H](NC(=O)[C@@H](N)CCCNC(=N)N)C(=O)N[C@@H](C)C(=O)N[C@@H](CCCNC(=N)N)C(=O)N[C@@H](CC(C)C)C(=O)N3CCC[C@H]3C(=O)N2)C(=O)CCSC[C@@H](C(=O)N[C@@H](CCCNC(=N)N)C(=O)N[C@@H](Cc2c[nH]c3ccccc23)C(N)=O)NC(=O)[C@H](CCCNC(=N)N)NC1=O
B8: peptide 8 (peptide 2, Phe3 to isoleucine) (peptide)
peptide: RCIRLPCRQLRCRW-NH2
modifications: linker 2-7-12 via TATA; N-terminus assumed
SMILES: CC[C@H](C)[C@@H]1NC(=O)[C@@H](NC(=O)[C@@H](N)CCCNC(=N)N)CSCCC(=O)N2CN3CN(C2)C(=O)CCSC[C@H](NC(=O)[C@@H]2CCCN2C(=O)[C@H](CC(C)C)NC(=O)[C@H](CCCNC(=N)N)NC1=O)C(=O)N[C@@H](CCCNC(=N)N)C(=O)N[C@@H](CCC(N)=O)C(=O)N[C@@H](CC(C)C)C(=O)N[C@@H](CCCNC(=N)N)C(=O)N[C@H](C(=O)N[C@@H](CCCNC(=N)N)C(=O)N[C@@H](Cc1c[nH]c2ccccc12)C(N)=O)CSCCC3=O
B9: peptide 7 (peptide 2, Phe3 to valine) (peptide)
peptide: RCVRLPCRQLRCRW-NH2
modifications: linker 2-7-12 via TATA; N-terminus assumed
SMILES: CC(C)C[C@@H]1NC(=O)[C@H](CCC(N)=O)NC(=O)[C@H](CCCNC(=N)N)NC(=O)[C@@H]2CSCCC(=O)N3CN(CN(C3)C(=O)CCSC[C@H](NC(=O)[C@@H](N)CCCNC(=N)N)C(=O)N[C@@H](C(C)C)C(=O)N[C@@H](CCCNC(=N)N)C(=O)N[C@@H](CC(C)C)C(=O)N3CCC[C@H]3C(=O)N2)C(=O)CCSC[C@@H](C(=O)N[C@@H](CCCNC(=N)N)C(=O)N[C@@H](Cc2c[nH]c3ccccc23)C(N)=O)NC(=O)[C@H](CCCNC(=N)N)NC1=O
B10: peptide 4 (peptide 2, Phe3 to tyrosine) (peptide)
peptide: RCYRLPCRQLRCRW-NH2
modifications: linker 2-7-12 via TATA; N-terminus assumed
SMILES: CC(C)C[C@@H]1NC(=O)[C@H](CCC(N)=O)NC(=O)[C@H](CCCNC(=N)N)NC(=O)[C@@H]2CSCCC(=O)N3CN(CN(C3)C(=O)CCSC[C@H](NC(=O)[C@@H](N)CCCNC(=N)N)C(=O)N[C@@H](Cc3ccc(O)cc3)C(=O)N[C@@H](CCCNC(=N)N)C(=O)N[C@@H](CC(C)C)C(=O)N3CCC[C@H]3C(=O)N2)C(=O)CCSC[C@@H](C(=O)N[C@@H](CCCNC(=N)N)C(=O)N[C@@H](Cc2c[nH]c3ccccc23)C(N)=O)NC(=O)[C@H](CCCNC(=N)N)NC1=O

Molecular target: T1, human β-FXIIa (HFXIIAB; Molecular …)
Assay: enzyme inhibition

Point of comparison: H-RCF[Agb]LPCRQLRCRW-NH2 (linker 2-7-12 via TATA) [peptide 40 (peptide 2, Arg4 to norarginine)], Ki 397 nM. Against it:
- B1 — 2.5-fold higher, 976 nM
- RCF[hArg]LPCRQLRCRW-NH2 (linker 2-7-12 via TATA) [peptide 39 (peptide 2, Arg4 to homoarginine)] — 2.2-fold lower, 181 nM
- RCF[hLys]LPCRQLRCRW-NH2 (linker 2-7-12 via TATA) [peptide 38 (peptide 2, Arg4 to homolysine)] — 3-fold lower, 131 nM

Molecular target: T1, human β-FXIIa (HFXIIAB; Molecular …)
Assay: enzyme inhibition
Remark: another data set of the same source

Point of comparison: RCFRLPCRQMRCR [Methionine (27), Leu10], Ki 364 nM. Against it:
- RCFRLPCRQARCR [Alanine (30), Leu10] — 7.3-fold higher, 2660 nM

Molecular target: T1, human β-FXIIa (HFXIIAB; Molecular …)
Assay: enzyme inhibition
Remark: another data set of the same source

Point of comparison: B3, Ki 75 nM. Against it:
- B2 — 1.5-fold lower, 50 nM
- RCFRLVCRQLRCR [Pro6 Valine (17)] — 1.6-fold higher, 119 nM

Molecular target: T1, human β-FXIIa (HFXIIAB; Molecular …)
Assay: enzyme inhibition
Remark: another data set of the same source

Point of comparison: B4, Ki 1400 nM. Against it:
- RCFRLPCRNLRCR [Gln9 Asparagine (22)] — 1.8-fold higher, 2550 nM
- RCFRLPCRELRCR [Gln9 Glutamic acid (23)] — higher, > 10000 nM
- RCFRLPCRHLRCR [Gln9 Histidine (24)] — higher, > 10000 nM
- B5 — 27-fold lower, 52 nM
- RCFRLPC[βAla]QLRCR-NH2 (linker 2-7-12 via TATA; not fully specified) [peptide 82 (FXII618, Arg8 to β-alanine)] — 1.9-fold lower, 755 nM

Molecular target: T1, human β-FXIIa (HFXIIAB; Molecular …)
Assay: enzyme inhibition
Remark: another data set of the same source

Point of comparison: B8, Ki 2010 nM. Against it:
- B6 — 29-fold lower, 70 nM
- B7 — 6-fold lower, 336 nM
- B9 — 4.9-fold lower, 413 nM
- RC[Bta]RLPCRQLRCRW-NH2 (linker 2-7-12 via TATA) [FXII618 variant with F in position three replaced by 3-benzothienylalanine] — 87-fold lower, 23 nM
- B10 — 25-fold lower, 82 nM
